Experimental data reported in a protein production outcome set (Wang et al. 2014).

Test: label from the status in PepcDB records

| Sequence | protein production |
| --- | --- |
| MANFIEKITYLGTPAIKAGNEHLEMIVVPEWGSNVISLVDKTTNVQLLREPETAESFHDTPTLYGIPILFPPNRISDGTFSFRGRTYHFDINEKDKHNHLHGFLYHEKWNVVTTKQTDEGVIVETEIDLSELPHVQKQFPHHAVVRMTYTIKENTLFKHATVMNKGKEAFPWGIGYHTTFIFPAESSLFSLTADQQWELDERLLPTGKLMDVPYKEALHEGMDLRHKQLDDVFLSSYQKRGGENQAVIYHQHAHISIIYKADEQFKHWVVYNADGKQGYLCPEPYTWVTNAVNLDLPSSLTGLQVLEPGEETTAKSSITIELNHQ | not failed |
| MIARIPKDIPDLPAIPGMPVLMPSAVPAAAVVAPTRRPLTTAFRLLVALAATAGVTIDLILGSPLRVLTYFTIQSSVLVALTFTLSAWRAWAARRPLPALLTGGTLLYAVITGLVYHLLLAHEPAPFTMTGQAGPLTGWQALTNQLLHTAVPVAVVLDWLLLTGSGRLRLRQASAWLLYPLAYLALTLARGELILPGTPGRYLYPFLDVEQHGYKSVLGNALLLGLAFYALAVLLVTLDRVRPNPLRRRAKNGFRLQPPVG | failed |
| MITKVTARNNKITPVELLNQKFGNKINLGNFADAVFTDAAFKNVAGIANLPMKAPVMQVLMENCIVSKYLKQFVPDRSVCFVEEGQKFYIVLEDGQKIEVPEDVNKALKATVSDVKHWAGYLTEDGEHVIDLLKPAPGPHFYVNLLIGNRLGFKRTLQTTPKSVVDRFGRGSFRSHAATQVLATRFDMRQEENGFPANRQFYLYEDGKQIFYSALIDDNIVEATCKHSCNRTVIKYKTACNLEITRTIFLVPHKKGFPLATELQRIEIKNASDKARNLSITYTGMFGTGAVHAIFEDVTYTNVIMQSAALYNDKGEFIGITPDYYPEEFKQDTRFVTMIVRNGDEKSFPQSFCTDYNDFVGTGTLEHPAGGCNLNNKLNRKGPGFFALGAPFTVEPGKTVIIDTFTGLSSSKDNENYSDAVMLRELDNLLRYFEKSESVEETLNEIINFHENYGKYFQFNTGNKLFDSGFNRNLAFQVLYQTFMSRSFGQTQKGYREIGFREIQDLFASMYYFINIGYQDFVKELLFEWTANVYKMGYANHNFYWVGKQPGLYSDDSLWLLQAYYRYIIYTKDTSVLNEEVPVADGNNEKRAVRETLKAIIQYSACISVGDHGLPLLDLADWNDCLKIASNSIDGATKEKLYYEQLKKTNGKYGDRFMSDYSESVMNAFLLKLAIDHLAEIATLDNDTQLAQQMSELSKEVTDRIQKHAWKENFFARVLINRYKDGSYTYLGAKGDKLSADPNIDGVYFLNSFAWSVLSDVATDEQIAIMVDVIKKHLLTPYGLRLVTPADLNKIANDTATGHYFFGDRENGAVFKHASMMAVAALIKAAKKVKDNELAKEMARIAYFMIDLVLPYKNLENPFQVAGNPRICTQYINTDTGENIGPLLSGTATWLNLNLISLAGIEYTRDGISFNPILREEETQLNFTLKAPKCSYKFSITKPVGFARMESSEYELFVDGQKIDNTVIPMYTDEKEHIVTLKFK | not failed |
| MMIMERHYTLKEASKILGVSIKTLQRWDKAGKIKCIRTLGGKRRVPESEIKRILGIKDKEQRKIIGYARVSFNAQKDDLERQIQLIKSYAEENGWDIQILKDIGSGLNEKRKNYKKLLKMVMNRKVEKVIIAYPDRLTRFGFETLKEFFKSYGTEIVIINKKHKTPQEELVEDLITIVSHFAGKLYGMHSHKYKKLTKTVKEIVREEDAKEKE | failed |
| MKTREEKMNKTILLLACLLGLVACSSQYIMSTKDGKMITSDSKPKLDKTTGMYLYYDEDGREVMIKQEDVTQIIERLEHHHHHH | not failed |
| MMIQGHLFHQDRKRTFRIVEPFGSTTDALIYFHGSQQSGSVGRSFTNRTFDPLPFMVVYPDGVDQHWNDARLGLDENTRHLGIDDVGFFVKLATHLGNTYGIKRIFIVGYSNGGQMVLRLMHEVPKMLSGAATIASNMPVAENTLPQVKTFKTHPVPYLAMAGTADTFSPYEGGDAGIGREHRRGVGMSAFDSAAYIAARNGLTEHRHDVIDDVVSIDTWDGENPVEFWTLNGIGHLVPSGKTYPEFLGPSTTSVIAAEEIGKFFDGVRRR | failed |
| MSVHHAERFLPFSDLQMFTLVADVERYPQFVPWWIAARVIDSRPAPAGDGPDAKIYRTDQVIGMGPVRLRFTSRTLLVSPRRISVASQGGGPVRDLSLDWWFDAQPGGCLTRLDMTLDLGSRSLENLLAGMSSEAAVKLVDAFERRAHALYQGG | failed |
| MSANVQEAANAAIEPASFVKVPMPEPPSSLQQLINDWQLIKHREGGYFKETDRSPYTMEVEKPVNGGSGNTEMVTRNQSTLIYYLLTPDSPIGKFHKNINRIIHILQRGKGQYVLVYPDGQVKSFKVGFDYKNGEVSQWVVPGGVFKASFLLPNEEFDNGFLISEVVVPGFDFEDHTFLKGEDELKHLVGPEKAAELAFLA | not failed |
| MVRMQTKAVMVFKLDEEGNAFYTQDIGDLYIFISRSEPFCVPASSFPGMFSNFVELLDVNENVTVDLSDYSMNGGFGYFGAPAHIPPQKLD | failed |
| MALTPDQMPDRAEVVFTCNGKAVGKMRNELDVAMVKPFEERFALATDEGAFHGGDASAPPPLALFIAGLTGCVMTQIRAFAKRLKVTVTDLDVECRVVWDWAKAGPVYETGPKSFEIDIILHSPDPIEAQQALIEAAKKGCFLEQTLGQANTIRHRLKVGDTFIDA | not failed |
| MESEKKIAHEIGGVKNDALRFGLHGVKSNIIGSHPLESSYESEKKSKEALKRTVIAHAYGTALPLKMDMDRQILSRFQRPPGPIPSSMLGLEVYTGAVDDFGFEDYLNDPRDSETFKPVDFHHGMEVRLGISKGPIYPSFM | failed |
| MRQPFQVLVIPFIKTEANYQFGVLHRTDADVWQFVAGGGEDEEAISETAKRESIEELNLDVDVKMYSLDSHASIPNFHFSFNKPYVVPEYCFAIDLTSCSYQVTLSLEHSELRWVSYESAIQLLEWDSNKTALYELNERLKNNDMKAM | not failed |
| MKPRDTRVKPGSRVSLADWHTDGDAFVGKDKAASMARLDDDRVRLEELQELLYAEGKHRLLVVLQAMDTAGKDSTIRHVFRGVDPLGVRVANFGVPSTHELRHDYLWRVHPHVPASGEIAIFNRSHYEDVLVPRVNGAIGHAECERRYRQINDFERMLSETGTTIRKFYLHISKDEQKKRLEARRDTPKKRWKFQPGDLAVRAQWDDYRAAYDALLSATSTRHAPWHVVPADDKLARNLIVSALLIEALEGLDMRYPEPVAGVAGTPII | not failed |
| MDLFDTPLAPLQVLDDAEGGVRYWPQLLAPAVAQAAFAALRDGADWQRHQRTMYDRVVDVPRLLASYRLDAPLPPGLPLQLLLAAVQAQLPAPYNAVGLNLYRDGRDSVAMHHDKLHTLLAPHPIALLSLGTPRRMQLRAKQGATRAITLELAPGSLLAMSHASQLTHEHGIPKTTRALGERISVVFRVRPPARMAAGQHGPHWEALTQTDLEHHHHHH | not failed |
| MVGGGTVKKDLKKAIQYYVKACELNEMFGCLSLVSNSQINKQKLFQYLSKACELNSGNGCRFLGDFYENGKYVKKDLRKAAQYYSKACGLNDQDGCLILGYKQYAGKGVVKNEKQAVKTFEKACRLGSEDACGILNNY | failed |
| MCVRHDAGHGCLRAREGRRRPSMAPPCRKKINKPVLVRVDEFCSAAVQAGNPIVPSTLETTHWATRRRPKEAGMASKMFKTVGRVAAGVAALSIAAAATTASADSRHHRHKRDKGGDVAAAAITAGVIGLVIGAAIADDGHRDDRYYDRRYAPPPPPPPTRYGHGYGYGYDYDYAPRPYYGDRECWTTREYNRRSGSYYERTVCR | failed |
| MEQRVLGGRYLLKDKVGTGGMATVYRAQDQVLDRTVAVKIMLPQYAGDATFAARFKQEAQAAAGLSSPYIVGVYDWGKDGDTYYIVMEYLRGTDLKSGIKSHGALDPKKVAQIGSQISSALSVAHKHEIIHRDIKPQNIMVLPDGNIKVMDFGIARAKNSHLTQDNNVLGTAHYVSPEQTRGQDLGPTSDIYSLGVVMYECATGRVPFDGDDAISVALKQVNELPIPPSQINSGVDADLERIILKCMEKDPTNRFQTADELRQVLNSYLSGRAVNVSEPTRIIGAPGELGATKTRELSDQTRAMVRPVSGVSGQNTARSSVSGSTGSYEVEEPKSNKNKIIAAVVAAVAVIGIVVAFATGLFGGEQVTVPDVLGKDQQTAVELIKEAGLEVGTIDQSYNDDVDEGKVAEQTPNGNTKKTKGTKVNLVISKGPKPSEKVEVPKLVGLTKDQAEAALASVGLKGNASEEANEADEGQVFEQGTEAGKEVAKGTTISYKVSSGPDTTSVPDLTDMTEAQARNALDMAGFGVDVSYQENDSVTEGTVISWNPSGKQKPGATITVVIAKKSGKATVPGNLYGKSISAAVTALNNAGFYNIGFCDQNGNPVSGNEDATVTGVSPTGKQSTDSTITLTVALSGSGSGSGTSTGDDSGTTN | failed |
